# Measurements: patent publication US20130273053
# Biological target: ST-pro-factor D-His (UniProt P00746)
# Sequence (P00746 21-253): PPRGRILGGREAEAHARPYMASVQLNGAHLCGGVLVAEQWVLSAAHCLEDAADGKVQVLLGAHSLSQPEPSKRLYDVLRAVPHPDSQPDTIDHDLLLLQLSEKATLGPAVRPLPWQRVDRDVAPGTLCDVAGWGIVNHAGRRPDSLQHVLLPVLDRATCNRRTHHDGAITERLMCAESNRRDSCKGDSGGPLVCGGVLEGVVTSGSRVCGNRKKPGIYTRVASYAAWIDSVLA
protein,measurement,value
"recombinant MASP-1 (CCP1-CCP2-SP) fragment (enzyme, part only; not given: tags; R504Q status unclear) chain, part: GNECPELQPPVHGKIEPSQAKYFFKDQVLVSCDTGYKVLKDNVEMDTFQIECLKDGTWSNKIPTCKIVDCRAPGELEHGLITFSTRNNLTTYKSEIKYSCQEPYYKMLNNNTGIYTCSAQGVWMNKVLGRSLPTCLPVCGLPKFSRKLMARIFNGRPAQKGTTPWIAMLSHLNGQPFCGGSLLGSSWIVTAAHCLHQSLDPKDPTLRDSDLLSPSDFKIILGKHWRLRSDENEQHLGVKHTTLHPKYDPNTFENDVALVELLESPVLNAFVMPICLPEGPQQEGAMVIVSGWGKQFLQRFPETLMEIEIPIVDHSTCQKAYAPLKKKVTRDMICAGEKEGGKDACSGDSGGPMVTLNRERGQWYLVGTVSWGDDCGKKDRYGVYSYIHHNKDWIQRVTGVRN","cleavage of pro-factor D substrate, Western blot",only full length MASP-3 (lane 2) and the MASP-1 CCP1-CCP2-SP) fragment (lane 5) cleaved ST-pro-factor D-His6
